How the values were obtained:
LRP6E1E2 = biological target: T1, LRP6E1E2 (UniProt O75581 20-630); test: BLI (Octet), FIG. 11B
T1 construct: domain: E1E2; also called LRP6 E1E2 domains
T1 sequence (looked up): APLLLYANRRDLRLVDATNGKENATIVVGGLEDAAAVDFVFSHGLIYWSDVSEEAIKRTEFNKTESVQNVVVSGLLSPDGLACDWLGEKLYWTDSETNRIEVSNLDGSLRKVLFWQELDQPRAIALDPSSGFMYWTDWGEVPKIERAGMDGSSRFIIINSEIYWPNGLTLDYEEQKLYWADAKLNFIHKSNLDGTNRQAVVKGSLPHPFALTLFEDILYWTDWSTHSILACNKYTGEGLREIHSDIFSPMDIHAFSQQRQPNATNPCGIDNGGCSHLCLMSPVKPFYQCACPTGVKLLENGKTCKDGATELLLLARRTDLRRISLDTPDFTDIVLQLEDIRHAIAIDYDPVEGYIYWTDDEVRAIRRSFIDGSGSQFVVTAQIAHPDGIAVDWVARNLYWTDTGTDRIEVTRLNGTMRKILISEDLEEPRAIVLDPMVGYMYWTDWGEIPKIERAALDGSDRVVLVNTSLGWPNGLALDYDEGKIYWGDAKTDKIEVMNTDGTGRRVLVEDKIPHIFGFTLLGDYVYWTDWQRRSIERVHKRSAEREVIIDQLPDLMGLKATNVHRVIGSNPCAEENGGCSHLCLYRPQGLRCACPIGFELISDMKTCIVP

FZD5 = biological target: T2, FZD5 (UniProt Q13467 28-150, limits assumed); test: column 'Specificity (Clone name)' of the component table; method not given there
T2 construct: also called Frizzled 5
T2 sequence (looked up): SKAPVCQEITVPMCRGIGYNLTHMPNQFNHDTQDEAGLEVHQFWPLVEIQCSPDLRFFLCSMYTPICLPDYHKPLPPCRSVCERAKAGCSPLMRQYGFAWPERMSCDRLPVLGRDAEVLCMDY

FZD7 = FZD7 (UniProt O75084 44-163); test: as above

B1: F1:10:L1:Fc (bispecific antibody)
chain: EVQLVESGGGLVQPGGSLRLSCAASGFTFSHYTLSWVRQAPGKGLEWVSVISGDGSYTYYADSVKGRFTISSDNSKNTLYLQMNSLRAEDTAVYYCARNFIKYVFANWGQGTLVTVSSGGGGSGGGGSGGGGSDIELTQPPSVSVAPGQTARISCSGDNIGSFYVHWYQQKPGQAPVLVIYDKSNRPSGIPERFSGSNSGNTATLTISGTQAEDEADYYCQSYANTLSLVFGGGTKLTVLGSGSGGSGSGDVKLVESGGGLVKLGGSLRLSCAASGFSFSTSYMSWVRQTPEKRLELVAAINLNGGSTYYSDTVKGRFTISRDNAKNTLYLQMSSLKSEDTAFYYCASELAGYGTPFAYWGQGTLVTVSAGSAASGSSGGSSSGADIVLTQSPATLSVTPGDSVSLSCKASQSISYNLHWYQQKSHESPRLLIKYTSQSISGIPSRFSGSGSGTDFTLTINNVETEDFGMYFCQQSNSWPLTFGAGTKLEVKGSGSGDKTHTCPPCPAPEAAGGPSVFLFPPKPKDTLMISRTPEVTCVVVDVSHEDPEVKFNWYVDGVEVHNAKTKPREEQYNSTYRVVSVLTVLHQDWLNGKEYKCKVSNKALGAPIEKTISKAKGQPREPQVYTLPPSREEMTKNQVSLTCLVKGFYPSDIAVEWESNGQPENNYKTTPPVLDSDGSFFLYSKLTVDKSRWQQGNVFSCSVMHEALHNHYTQKSLSLSPGK
notes: 2:2 tandem scFv-Fc
B1: binds (LRP6E1E2).

B2: L1:10:F1:Fc (bispecific antibody)
chain: DVKLVESGGGLVKLGGSLRLSCAASGFSFSTSYMSWVRQTPEKRLELVAAINLNGGSTYYSDTVKGRFTISRDNAKNTLYLQMSSLKSEDTAFYYCASELAGYGTPFAYWGQGTLVTVSAGSAASGSSGGSSSGADIVLTQSPATLSVTPGDSVSLSCKASQSISYNLHWYQQKSHESPRLLIKYTSQSISGIPSRFSGSGSGTDFTLTINNVETEDFGMYFCQQSNSWPLTFGAGTKLEVKGSGSGGSGSGEVQLVESGGGLVQPGGSLRLSCAASGFTFSHYTLSWVRQAPGKGLEWVSVISGDGSYTYYADSVKGRFTISSDNSKNTLYLQMNSLRAEDTAVYYCARNFIKYVFANWGQGTLVTVSSGGGGSGGGGSGGGGSDIELTQPPSVSVAPGQTARISCSGDNIGSFYVHWYQQKPGQAPVLVIYDKSNRPSGIPERFSGSNSGNTATLTISGTQAEDEADYYCQSYANTLSLVFGGGTKLTVLGSGSGDKTHTCPPCPAPEAAGGPSVFLFPPKPKDTLMISRTPEVTCVVVDVSHEDPEVKFNWYVDGVEVHNAKTKPREEQYNSTYRVVSVLTVLHQDWLNGKEYKCKVSNKALGAPIEKTISKAKGQPREPQVYTLPPSREEMTKNQVSLTCLVKGFYPSDIAVEWESNGQPENNYKTTPPVLDSDGSFFLYSKLTVDKSRWQQGNVFSCSVMHEALHNHYTQKSLSLSPGK
notes: 2:2 tandem scFv-Fc
B2: binds (LRP6E1E2).

B3: L1:5:F1:Fc (bispecific antibody)
chain: DVKLVESGGGLVKLGGSLRLSCAASGFSFSTSYMSWVRQTPEKRLELVAAINLNGGSTYYSDTVKGRFTISRDNAKNTLYLQMSSLKSEDTAFYYCASELAGYGTPFAYWGQGTLVTVSAGSAASGSSGGSSSGADIVLTQSPATLSVTPGDSVSLSCKASQSISYNLHWYQQKSHESPRLLIKYTSQSISGIPSRFSGSGSGTDFTLTINNVETEDFGMYFCQQSNSWPLTFGAGTKLEVKGSGSGEVQLVESGGGLVQPGGSLRLSCAASGFTFSHYTLSWVRQAPGKGLEWVSVISGDGSYTYYADSVKGRFTISSDNSKNTLYLQMNSLRAEDTAVYYCARNFIKYVFANWGQGTLVTVSSGGGGSGGGGSGGGGSDIELTQPPSVSVAPGQTARISCSGDNIGSFYVHWYQQKPGQAPVLVIYDKSNRPSGIPERFSGSNSGNTATLTISGTQAEDEADYYCQSYANTLSLVFGGGTKLTVLGSGSGDKTHTCPPCPAPEAAGGPSVFLFPPKPKDTLMISRTPEVTCVVVDVSHEDPEVKFNWYVDGVEVHNAKTKPREEQYNSTYRVVSVLTVLHQDWLNGKEYKCKVSNKALGAPIEKTISKAKGQPREPQVYTLPPSREEMTKNQVSLTCLVKGFYPSDIAVEWESNGQPENNYKTTPPVLDSDGSFFLYSKLTVDKSRWQQGNVFSCSVMHEALHNHYTQKSLSLSPGK
B3: binds (LRP6E1E2).

B4: F3: antiFZD5, 8 (2919) scFv (scFv)
scFv: EVQLVESGGGLVQPGGSLRLSCAASGFNISYSYIHWVRQAPGKGLEWVASIYSSSGSTSYADSVKGRFTISADTSKNTAYLQMNSLRAEDTAVYYCARGAIDYWGQGTLVTVSSGGGGSGGGGSGGGGSDIQMTQSPSSLSASVGDRVTITCRASQSVSSAVAWYQQKPGKAPKLLIYSASSLYSGVPSRFSGSRSGTDFTLTISSLQPEDFATYYCQQWYSSGHVLITFGQGTKVEIK
B4: binds (FZD5).

B5: F1:15:L1:Fc (bispecific antibody)
chain: EVQLVESGGGLVQPGGSLRLSCAASGFTFSHYTLSWVRQAPGKGLEWVSVISGDGSYTYYADSVKGRFTISSDNSKNTLYLQMNSLRAEDTAVYYCARNFIKYVFANWGQGTLVTVSSGGGGSGGGGSGGGGSDIELTQPPSVSVAPGQTARISCSGDNIGSFYVHWYQQKPGQAPVLVIYDKSNRPSGIPERFSGSNSGNTATLTISGTQAEDEADYYCQSYANTLSLVFGGGTKLTVLGSGSGGSGSGGSSGGDVKLVESGGGLVKLGGSLRLSCAASGFSFSTSYMSWVRQTPEKRLELVAAINLNGGSTYYSDTVKGRFTISRDNAKNTLYLQMSSLKSEDTAFYYCASELAGYGTPFAYWGQGTLVTVSAGSAASGSSGGSSSGADIVLTQSPATLSVTPGDSVSLSCKASQSISYNLHWYQQKSHESPRLLIKYTSQSISGIPSRFSGSGSGTDFTLTINNVETEDFGMYFCQQSNSWPLTFGAGTKLEVKGSGSGDKTHTCPPCPAPEAAGGPSVFLFPPKPKDTLMISRTPEVTCVVVDVSHEDPEVKFNWYVDGVEVHNAKTKPREEQYNSTYRVVSVLTVLHQDWLNGKEYKCKVSNKALGAPIEKTISKAKGQPREPQVYTLPPSREEMTKNQVSLTCLVKGFYPSDIAVEWESNGQPENNYKTTPPVLDSDGSFFLYSKLTVDKSRWQQGNVFSCSVMHEALHNHYTQKSLSLSPGK
notes: 2:2 tandem scFv-Fc
B5: binds (LRP6E1E2).

B6: F1:5:L1:Fc (bispecific antibody)
chain: EVQLVESGGGLVQPGGSLRLSCAASGFTFSHYTLSWVRQAPGKGLEWVSVISGDGSYTYYADSVKGRFTISSDNSKNTLYLQMNSLRAEDTAVYYCARNFIKYVFANWGQGTLVTVSSGGGGSGGGGSGGGGSDIELTQPPSVSVAPGQTARISCSGDNIGSFYVHWYQQKPGQAPVLVIYDKSNRPSGIPERFSGSNSGNTATLTISGTQAEDEADYYCQSYANTLSLVFGGGTKLTVLGSGSGDVKLVESGGGLVKLGGSLRLSCAASGFSFSTSYMSWVRQTPEKRLELVAAINLNGGSTYYSDTVKGRFTISRDNAKNTLYLQMSSLKSEDTAFYYCASELAGYGTPFAYWGQGTLVTVSAGSAASGSSGGSSSGADIVLTQSPATLSVTPGDSVSLSCKASQSISYNLHWYQQKSHESPRLLIKYTSQSISGIPSRFSGSGSGTDFTLTINNVETEDFGMYFCQQSNSWPLTFGAGTKLEVKGSGSGDKTHTCPPCPAPEAAGGPSVFLFPPKPKDTLMISRTPEVTCVVVDVSHEDPEVKFNWYVDGVEVHNAKTKPREEQYNSTYRVVSVLTVLHQDWLNGKEYKCKVSNKALGAPIEKTISKAKGQPREPQVYTLPPSREEMTKNQVSLTCLVKGFYPSDIAVEWESNGQPENNYKTTPPVLDSDGSFFLYSKLTVDKSRWQQGNVFSCSVMHEALHNHYTQKSLSLSPGK
notes: 2:2 tandem scFv-Fc
B6: binds (LRP6E1E2).

B7: F2: antiFZD1, 2, 7 (R2H1) scFv (scFv)
scFv: EVQLVESGGGLVQPGGSLRLSCAASGFNISSSYIHWVRQAPGKGLEWVAYIYSSYGSTYYADSVKGRFTISADTSKNTAYLQMNSLRAEDTAVYYCARASWYALDYWGQGTLVTVSSGSAASGSSGGSSSGADIQMTQSPSSLSASVGDRVTITCRASQSVSSAVAWYQQKPGKAPKLLIYSASSLYSGVPSRFSGSRSGTDFTLTISSLQPEDFATYYCQQYWYGVAPITFGQGTKVEIK
B7: binds (FZD7).

B8: L1:15:F1:Fc (bispecific antibody)
chain: DVKLVESGGGLVKLGGSLRLSCAASGFSFSTSYMSWVRQTPEKRLELVAAINLNGGSTYYSDTVKGRFTISRDNAKNTLYLQMSSLKSEDTAFYYCASELAGYGTPFAYWGQGTLVTVSAGSAASGSSGGSSSGADIVLTQSPATLSVTPGDSVSLSCKASQSISYNLHWYQQKSHESPRLLIKYTSQSISGIPSRFSGSGSGTDFTLTINNVETEDFGMYFCQQSNSWPLTFGAGTKLEVKGSGSGGSGSGGSSGGEVQLVESGGGLVQPGGSLRLSCAASGFTFSHYTLSWVRQAPGKGLEWVSVISGDGSYTYYADSVKGRFTISSDNSKNTLYLQMNSLRAEDTAVYYCARNFIKYVFANWGQGTLVTVSSGGGGSGGGGSGGGGSDIELTQPPSVSVAPGQTARISCSGDNIGSFYVHWYQQKPGQAPVLVIYDKSNRPSGIPERFSGSNSGNTATLTISGTQAEDEADYYCQSYANTLSLVFGGGTKLTVLGSGSGDKTHTCPPCPAPEAAGGPSVFLFPPKPKDTLMISRTPEVTCVVVDVSHEDPEVKFNWYVDGVEVHNAKTKPREEQYNSTYRVVSVLTVLHQDWLNGKEYKCKVSNKALGAPIEKTISKAKGQPREPQVYTLPPSREEMTKNQVSLTCLVKGFYPSDIAVEWESNGQPENNYKTTPPVLDSDGSFFLYSKLTVDKSRWQQGNVFSCSVMHEALHNHYTQKSLSLSPGK
notes: 2:2 tandem scFv-Fc
B8: binds (LRP6E1E2).

B9: F1: antiFZD1, 2, 7, 5, 8 (18R5) scFv (scFv)
scFv: EVQLVESGGGLVQPGGSLRLSCAASGFTFSHYTLSWVRQAPGKGLEWVSVISGDGSYTYYADSVKGRFTISSDNSKNTLYLQMNSLRAEDTAVYYCARNFIKYVFANWGQGTLVTVSSGGGGSGGGGSGGGGSDIELTQPPSVSVAPGQTARISCSGDNIGSFYVHWYQQKPGQAPVLVIYDKSNRPSGIPERFSGSNSGNTATLTISGTQAEDEADYYCQSYANTLSLVFGGGTKLTVL
B9: binds (FZD5); binds (FZD7).

Reference: patent US20210292422A1 (SURROZEN, published 2021)
